According to patent US20200116725:

Biological target: T1, P220 MMP9-cleavable peptide, Biotin-GGGGGGGGGGPLGVRGKGGC
T1 chain: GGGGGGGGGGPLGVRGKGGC

B1: MMP7 (Active, Human, Recombinant, E. coli, 444270, Merck Millipore) (protein)
chain: YSLFPNSPKWTSKVVTYRIVSYTRDLPHITVDRLVSKALNMWGKEIPLHFRKVVWGTADIMIGFARGAHGDSYPFDGPGNTLAHAFAPGTGLGGDAHFDEDERWTDGSSLGINFLYAATHELGHSLGMGHSSDPNAVMYPTYGNGDPQNFKLSQDDIKGIQKLYGKRSNSRKK
% Cleavage (free AuNC fraction: 7-12 mL), gel filtration chromatography with catalytic activity readout; AuNC-P220-NAv + MMP7/9/13 (12 h): MMP7: 12.1%
